The values below are quoted from earlier work in publication PMC11335090.

This data set addresses AXL (Homo sapiens) (UniProt P30530).
Sequence of UniProt P30530 (P30530 26-451): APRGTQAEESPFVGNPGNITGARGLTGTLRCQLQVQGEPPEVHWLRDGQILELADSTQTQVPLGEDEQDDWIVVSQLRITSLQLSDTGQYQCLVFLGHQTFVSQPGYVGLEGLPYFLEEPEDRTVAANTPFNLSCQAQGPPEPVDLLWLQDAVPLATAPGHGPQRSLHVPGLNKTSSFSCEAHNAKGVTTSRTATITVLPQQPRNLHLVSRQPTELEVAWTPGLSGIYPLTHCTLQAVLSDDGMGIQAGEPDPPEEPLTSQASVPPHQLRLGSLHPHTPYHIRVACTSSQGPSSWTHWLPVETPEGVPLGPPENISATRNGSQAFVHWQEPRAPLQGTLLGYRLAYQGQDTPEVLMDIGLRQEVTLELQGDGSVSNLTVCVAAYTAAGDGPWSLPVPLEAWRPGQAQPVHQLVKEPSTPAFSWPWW

In the case of GAS6 (from UniProt Q14393), the dissociation constant Kd was 32 pM.
